Data as given in PMC11077054.

Assays:
[1] = biological target: nYFP-CmoNAC1 (pumpkin)
[2] = biological target: nYFP-CmoNAC1 (pumpkin); remark: listed apart in the source

LUC/RLU ratio of the reporter with the NACbs of the CmoNCED6 promoter in tobacco: CmoNAC1 + CmoDREB2A against CmoNAC1 alone [1]: 87%
LUC/RLU ratio of the reporter with the NACbs of the CmoRBOHD1 promoter in tobacco: CmoNAC1 + CmoDREB2A against CmoNAC1 alone [1]: 67%
LUC/RLU ratio of the reporter with the NACbs of the CmoAKT1;2 promoter in tobacco: CmoDREB2A + CmoNAC1 against CmoNAC1 alone [2]: 99%
LUC/RLU ratio of the reporter with the NACbs of the CmoHKT1;1 promoter in tobacco: CmoDREB2A + CmoNAC1 against CmoNAC1 alone [2]: 107%
Substance: CmoDREB2A-cYFP (natural protein)
